Assay results as given in patent US20170192000A1 (Hoffmann-La Roche, published 2017).

Biological target: T1, Human li p10 (human)
T1 construct: also called Ii p10; li p10 peptide
T1 chain: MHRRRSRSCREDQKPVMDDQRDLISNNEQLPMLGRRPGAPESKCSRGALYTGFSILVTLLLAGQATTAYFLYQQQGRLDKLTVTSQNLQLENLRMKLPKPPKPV
Assay: flow cytometry on fixed and permeabilised human PBMC treated with Cathepsin S inhibitor 1
Procedure: FIG. 1: Detection of Ii p10 expression on B cells and T cells using a neoepitope antibody. PBMCs isolated from blood donation of a healthy donor (R213) were incubated for 20 h with increasing concentrations of Cathepsin S inhibitor 1 or vehicle. Ii p10 detection on B cells (CD20+) and T cells (CD3+) was determined by flow cytometry using a different neoepitope antibody 7B8 (black).

B1: anti li p10 antibody 7B8 (antibody, V domains shown)
VH: QSLEESGGRLVTPGTPLTLTCTVSGIDLSTYAMTWVRQAPGKGLEWIGIIYNNGVVVYASWAKGRFTISKTSTTVDLKMTSPTTEDTATYFCCRGYYDGSVNVWGPGTLVTVSL
VL: QVLTQTASSVSAVVGGTVTISCQSSQSVYNDNVLSWFQQKPGQPPKLLIYLASTLASGVPSRFSGSGSGTQFTLTISDLECDDAAAYYCLGGYTGDMYAFGGGTEVVV
notes: Used unlabeled at 10 ug/mL and detected with PE-conjugated goat anti-rabbit IgG; also called anti-p10 antibody
**Q.** Does B1 bind?
**A.** binds
